Source: patent US7262005
code Z = not defined here; fmk = not defined here

Experiments:
caspases = assay: cell-based or functional assay
[1] = biological target: 2XUb-DEVD-Bla fusion protein, P62593
Chain of 2XUb-DEVD-Bla fusion protein, P62593 (P62593 whole entry, looked up, the tested form may be a part): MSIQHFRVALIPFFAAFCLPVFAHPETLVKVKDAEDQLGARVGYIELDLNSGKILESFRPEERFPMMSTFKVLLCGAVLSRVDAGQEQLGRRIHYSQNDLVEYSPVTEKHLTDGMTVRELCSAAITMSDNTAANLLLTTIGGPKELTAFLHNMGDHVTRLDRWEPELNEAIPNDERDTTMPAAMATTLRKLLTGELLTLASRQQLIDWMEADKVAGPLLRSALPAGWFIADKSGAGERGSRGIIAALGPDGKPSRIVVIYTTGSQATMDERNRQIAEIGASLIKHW

Binder	460/530 emission ratio, + αFas/+ inh/+ chx, Jurkat cells expressing 2XUb-DEVD-Bla, 10 µM Z-VAD-fmk (460/530 emission ratio) (caspases)	IC50 of inhibition of anti-Fas-induced caspase activity in Jurkat cells expressing 2XUb-DEVD-Bla (β-lactamase activity, CCF2 460/530 nm ratio) (caspases)	in vitro cleavage of the 35S-labeled fusion by 25 nM purified caspase-3, SDS-PAGE and autoradiography [1]
{code Z}-Val-Ala-Asp-fmk (reading uncertain; also: printed as Z-VAD-fmk) [Z-VAD-fmk]	0.08	5 µM	–
purified recombinant caspase-3 (protein) SGISLDNSYKMDYPEMGLCIIINNKNFHKSTGMTSRSGTDVDAANLRETFRNLKYEVRNKNDLTREEIVELMRDVSKEDHSKRSSFVCVLLSHGEEGIIFGTNGPVDLKKITNFFRGDRCRSLTGKPKLFIIQACRGTELDCGIETDSGVDDDMACHKIPVEADFLYAYSTAPGYYSWRNSKDGSWFIQSLCAMLKQYADKLEFMHILTRVNRKVATEFESFSFDATFHAKKQIPCIVSMLTKELYFYH	–	–	over 90% cleavage within 5 minutes
